The record followed here is US10351623B2, “Antagonists of IL-17 isoforms and their uses” (Orega Biotech, priority 2012, dated 2019).

For data set [1], the system named is normal human dermal fibroblasts (NHDF). As to the kind of experiment: IL-6 ELISA. It is filed as cell-based. To be noted: 30 ng/ml recombinant cytokine, 24 h culture, ELISA of supernatant. The protocol:
FIG. 12: IL-17B, IL-17C, IL-17D, IL-17E and IL-17F increase the production of pro-inflammatory IL-6 by normal human dermal fibroblasts (NHDF). NHDF were cultured for 24 h in complete adequate complete medium alone (medium) or in the presence of 30 ng/ml of recombinant human IL-17B, IL-17C, IL-17D, IL-17E or IL-17F as indicated. All isoforms increased the production of pro-inflammatory IL-6 by NHDF.
Normal human dermal fibroblasts (NHDF) were cultures in complete medium alone or supplemented with 30 ng/ml L of recombinant IL-17B, IL17C or IL17D as indicated. After […] of culture, supernatant are collected. IL-6 ELISA is performed with human IL-6 development kit (Peprotech) following manufacturer's instructions.
(In general: An ELISA detects its analyte on a solid surface through an enzyme-linked reagent.)

The subject of data set [2] is OAW42 ovarian cancer cells. The data set can be described thus: Cell proliferation assay ([3H]-TdR). To be noted: [3H]-TdR incorporation at 72 h, increasing doses of recombinant cytokine (0 to 100 ng/ml). The class given is cell-based, human. The protocol:
(§1) FIGS. 10A-10F: IL-17C and IL-17D increase the proliferation of breast and ovarian cancer cells. OAW42 (ovarian, A), MCF7 (breast, B) and T47D (breast, C) cells were cultured in adequate complete medium supplemented with increasing doses of recombinant human IL-17C as indicated. Cell proliferation was assessed at 72 h using tritiated thymidine ([3H]-TdR) incorporation protocol. OAW42 (D), MCF7 (E) and T47D (F) cells were cultured in adequate complete medium supplemented with increasing doses of recombinant human IL-17D as indicated. Cell proliferation was assessed at 72 h using tritiated thymidine ([3H]-TdR) incorporation protocol.
HCT116, HT29, and SKOV3 cell lines were cultured in McCoy5a medium (Life technologies) supplemented with 10% FCS, 2% glutamine and 1% antibiotics (Life technologies). MCF7, T47D, MDA-MB231 and BT20 cell lines were cultured in RPMI 1640 medium supplemented as described above. SKMEL5, LOVO, OAW42, MDA-MB435S, MDA-MB436, MDA-MB468 cell lines and normal human dermal fibroblasts (NHDF) were grown in DMEM/F12 medium (Life Technologies) supplemented as described above. […]
(§2) 400 cells are seeded per well in 96 well plate (Corning) and kept overnight in adequate complete medium. […] [3H]-TdR uptake was measured using PerkinElmer microβ2 2450 microplate counter.

Data set [3] concerns T47D breast cancer cells. As to the kind of experiment: Cell proliferation assay ([3H]-TdR). The class given is cell-based, human. As to conditions: [3H]-TdR incorporation at 72 h, increasing doses of recombinant cytokine (0 to 100 ng/ml). On the procedure:
(§3) FIGS. 7A-7D: IL-17B increases the proliferation of breast cancer cells. T47D (A), MCF7 (B), MDA-MB436 (C) and MDA-MB468 (D) cells were cultured in adequate complete medium supplemented with increasing doses of recombinant human IL-17B as indicated. Cell proliferation was assessed at 72 h using tritiated thymidine ([3H]-TdR) incorporation protocol.
as §1
(§4) HCT116, HT29, and SKOV3 cell lines were cultured in McCoy5a medium (Life technologies) supplemented with 10% FCS, 2% glutamine and 1% antibiotics (Life technologies). MCF7, T47D, MDA-MB231 and BT20 cell lines were cultured in RPMI 1640 medium supplemented as described above. SKMEL5, LOVO, OAW42, MDA-MB435S, MDA-MB436, MDA-MB468 cell lines and normal human dermal fibroblasts (NHDF) were grown in DMEM/F12 medium (Life Technologies) supplemented as described above. MCF10A cell line was maintained in DMEM/F12 medium (Life Technologies) supplemented as described above and with 10 μg/ml insulin, 0.5 μg/ml hydrocortisone, 20 ng/ml EGF and 100 ng/ml cholera toxin. MDA-MB157 cell line was cultured in DMEM medium (Life technologies) supplemented with 10% FCS, 2% glutamine and 1% antibiotics. All cells were kept at 37° C. in 5% CO2 atmosphere incubator.
(§5) 400 cells are seeded per well in 96 well plate (Corning) and kept overnight in adequate complete medium. Medium is then removed and replaced with adequate complete medium supplemented with 0 to 100 ng/ml of cytokines as indicated. Each condition is performed in triplicate. After 72 h of culture, cells were pulsed for 16 h with tritiated thymidine ([3H]-TdR) (0.5 μCi) and harvested. [3H]-TdR uptake was measured using PerkinElmer microβ2 2450 microplate counter.

For data set [4], the system named is MCF7 breast cancer cells. The data set can be described thus: Cell proliferation assay ([3H]-TdR). It is filed as cell-based, human. As to conditions: [3H]-TdR incorporation at 72 h, increasing doses of recombinant cytokine (0 to 100 ng/ml). On the procedure:
as §3, §1, §4, §5

The test system of data set [5] is MDA-MB231 breast cancer cells. As to the kind of experiment: Matrigel invasion assay. To be noted: cultured 2 days with 100 ng/ml, Matrigel Invasion Chambers, 22 hours. The class given is cell-based, human. On the procedure:
FIGS. 11A-11B: IL-17C and IL-17D increase invasion of MDA-MB231 breast cancer cells. MDA-MB231 were cultured for 2 days in complete adequate medium alone (medium) or supplemented with 100 ng/ml of recombinant human IL-17B, IL-17C or IL-17D as indicated. Cell invasiveness was then evaluated in Matrigel Invasion Chambers (A, representative photomicrographs, B, quantification).
(§6) Cells were cultured in adequate complete medium supplemented with 100 ng/ml of recombinant cytokines for 2 days (MDA-MB231) or 14 days (OAW42). Matrigel Invasion Chambers (BD BioCoat™ BD Matrigel™ Invasion Chamber, 24-well Cell culture inserts) were then used to study the invasiveness of cancer cells. 2.10^4 cells are then added to the upper compartment of the chambers in 1% FCS adequate medium alone or supplemented with 100 ng/ml of recombinant cytokines as indicated. Medium supplemented with 10% FCS is added to the lower wells of the chambers. Plates are incubated for 22 hours at 37° C. Transwell filters are then fixed and stained in Giemsa solution following which non-invading cells are removed from the upper surface of the transwell membrane using a cotton swab. Images of cells from three representative fields are captured digitally and the number of cells present on the transwell is counted.

Data set [6] deals with MCF7 breast cancer cells. The data set can be described thus: Cytotoxicity assay, doxorubicin-induced cell death. To be noted: cytokine 1 or 10 ng/ml, doxorubicin 20 or 30 μM for 7 h. It is filed as cell-based. The protocol:
(§7) FIGS. 9A-9F: IL-17B inhibits docetaxel and doxorubicin-induced cell death. MCF7 (A), T47D (B), MDA-MB436 (C), BT20 (D) and MDA-MB468 (E) breast cells were cultured for 48 h in adequate complete medium alone (medium) or treated with recombinant human IL-17B at 1 or 10 ng/ml as indicated. Cells were then culture in Fetal Calf Serum (FCS) free medium supplemented with corresponding concentration of cytokine for 24 h and then further supplemented with docetaxel at 5, 10, 20 or 40 μg/ml as indicated for 7 h. The percentage of cell death (=cytotoxicity) was determined using the Cytotoxicity Detection Kit (Roche). (F) MCF7 cells were cultured for 48 h in adequate complete medium alone (medium) or treated with recombinant human IL-17B at 1 or 10 ng/ml as indicated. […] The percentage of cell death (=cytotoxicity) was determined using the Cytotoxicity Detection Kit (Roche). […]
(§8) The percentage of cell death (=cytotoxicity) was determined after 7 h of culture in the presence of docetaxel or doxorubicin using the Cytotoxicity Detection Kit (Roche) according to the manufacturer's instructions. […] Optical density was then read at 490 nm. The percentage of cytotoxicity is calculated as followed: %=100×(exp value−control medium value)/(Triton X100 treated cells value−control medium value)

The test system of data set [7] is breast cancer cell lines that express IL-17RB. The data set can be described thus: Cytotoxicity assay, docetaxel-induced cell death. It is filed as cell-based. As to conditions: MCF7, T47D, MDA-MB436, BT20, MDA-MB468; cytokine 1 or 10 ng/ml; docetaxel 5, 10, 20 or 40 μg/ml for 7 h. On the procedure: as §7, §8
Data set [8] has as its system MDA-MB231 cells. As to the kind of experiment: Cell proliferation assay ([3H]-TdR). To be noted: MDA-MB231 cells that do not express IL-17RB; data not shown. It is filed as cell-based, human. The protocol: as §4, §5
The test system of data set [9] is OAW42 ovarian cancer cells. As to the kind of experiment: Matrigel invasion assay. The class given is cell-based, human. To be noted: cultured 14 days with 100 ng/ml, Matrigel Invasion Chambers, 22 hours. The protocol:
(§9) FIGS. 8A-8C: IL-17B increases migration and invasion of breast and ovarian cancer cells. OAW42 (ovarian, A) and MCF7 (breast, B) cells were cultured in complete adequate complete medium alone (Ctl) or supplemented with 100 ng/ml of recombinant human IL-17B (IL-17B) as indicated. Cell migration was evaluated in transwell migration assay. (C) OAW42 cells were cultured for 14 days in adequate complete medium alone (Ctl) or supplemented with 100 ng/ml of recombinant human IL-17B (IL-17B) as indicated. Cell invasiveness was then evaluated in Matrigel Invasion Chambers.
as §6, with “Transwell filters are then fixed and stained in Giemsa solution following which non-invading cells are removed from the upper surface of the transwell membrane using a cotton swab.” left out

For data set [10], the system named is OAW42 ovarian cancer cells. As to the kind of experiment: Transwell migration assay. As to conditions: 100 ng/ml, 22 hours. The class given is cell-based, human. The protocol:
as §9
(§10) Migration Assay 20,000 cells were seeded on the upper chamber of trans well chambers in 1% FCS adequate medium alone (medium) or supplemented with recombinant human IL-17B (100 ng/ml) for 22 hours at 37° C. as indicated. The cells on the transwell were stained with 0.5% crystal violet prior imaging and enumeration. The number of cells migrated onto the transwell were counted (magnification ×4). The graph presents data after quantification in % of cell migration compared to non-treated cells. Results are the mean+/−SEM of two independent experiments, each performed in triplicate.

Data set [11] has as its system MCF7 breast cancer cells. The data set can be described thus: Transwell migration assay. It is filed as cell-based, human. To be noted: 100 ng/ml, 22 hours. The protocol:
as §9, §10

Data set [12] has as its system MDA-MB436 breast cancer cells. As to the kind of experiment: Cell proliferation assay ([3H]-TdR). The class given is cell-based, human. To be noted: [3H]-TdR incorporation at 72 h, increasing doses of recombinant cytokine (0 to 100 ng/ml). The protocol: as §3, §4, §2
Data set [13] concerns MDA-MB468 breast cancer cells. The data set can be described thus: Cell proliferation assay ([3H]-TdR). To be noted: [3H]-TdR incorporation at 72 h, increasing doses of recombinant cytokine (0 to 100 ng/ml). It is filed as cell-based, human. On the procedure: as §3, §4, §2

B1: IL-17F: recombinant human IL-17F, interleukin 17 isoform (protein, UniProt Q96PD4 31-163, looked up)
Interleukin-17F: RKIPKVGHTFFQKPESCPPVPGGSMKLDIGIINENQRVSMSRNIESRSTSPWNYTVTWDPNRYPSEVVQAQCRNLGCINAQGKEDISMNSVPIQQETLVVRRKHQGCSVSFQLEKVLVTVGCTCVTPVIHHVQ
As for B1, in data set [1], the “production of pro-inflammatory IL-6” value is “increase”.

B2: IL-17C: recombinant human IL-17C, interleukin 17 isoform that binds IL-17RE (protein)
chain: HHDPSLRGHPHSHGTPHCYSAEELPLGQAPPHLLARGAKWGQALPVALVSSLEAASHRGRHERPSATTQCPVLRPEEVLEADTHQRSISPWRYRVDTDEDRYPQKLAFAECLCRGCIDARTGRETAALNSVRLLQSLLVLRRRPCSRDGSGLPTPGAFAFHTEFIHVPVGCTCVLPRSV
Regarding B2, the cell proliferation entry in data set [2], in [3] and in data set [4] was “increased” each time. For the same molecule, in data set [5], the cell invasiveness result is “increased”. Also, the “production of pro-inflammatory IL-6” value in data set [1] is recorded as “increase”.

B3: IL-17D: recombinant human IL-17D, interleukin 17 isoform, receptor unknown (protein, UniProt Q8TAD2 16-202, looked up)
Interleukin-17D: AGAPRAGRRPARPRGCADRPEELLEQLYGRLAAGVLSAFHHTLQLGPREQARNASCPAGGRPADRRFRPPTNLRSVSPWAYRISYDPARYPRYLPEAYCLCRGCLTGLFGEEDVRFRSAPVYMPTVVLRRTPACAGGRSVYTEAYVTIPVGCTCVPEPEKDADSINSSIDKQGAKLLLGPNDAPAGP
Regarding B3, the cell proliferation result in [2] and in data set [4] was “increased” throughout. For the same molecule, the cell invasiveness entry in data set [5] is “increased”. Also, the “production of pro-inflammatory IL-6” value in data set [1] is given as “increase”.

B4: IL-17B: recombinant human IL-17B, interleukin 17 isoform that binds IL-17RB (protein)
chain: QPRSPKSKRKGQGRPGPLAPGPHQVPLDLVSRMKPYARMEEYERNIEEMVAQLRNSSELAQRKCEVNLQLWMSNKRSLSPWGYSINHDPSRIPVDLPEARCLCLGCVNPFTMQEDRSMVSVPVFSQVPVRRRLCPPPPRTGPCRQRAVMETIAVGCTCIF
Turning to B4, the “doxorubicin-induced cell death (cytotoxicity)” value in data set [6] is “protected”. Besides, the “docetaxel-induced cell death (cytotoxicity)” value in data set [7] is “decreased”. The cell proliferation result in data set [8] is given as “did not stimulate”; in data set [3], “increased”; in data set [4] it was “increased”; in data set [12] it was “increased”; in data set [13], “increased”. The figures for the cell invasiveness entry in [9] and in data set [5] were “increased” and “did not increase”, respectively. Also, the cell migration entry in data set [10] and in data set [11] was “increased” each time. In addition, the “production of pro-inflammatory IL-6” value in data set [1] is listed as “increase”.

B5: IL-17E: recombinant human IL-17E (=IL-25), interleukin 17 isoform (protein, UniProt Q9H293 33-177, looked up)
Interleukin-25: YSHWPSCCPSKGQDTSEELLRWSTVPVPPLEPARPNRHPESCRASEDGPLNSRAISPWRYELDRDLNRLPQDLYHARCLCPHCVSLQTGSHMDPRGNSELLYHNQTVFYRRPCHGEKGTHKGYCLERRLYRVSLACVCVRPRVMG
With B5, the “production of pro-inflammatory IL-6” value in [1] is listed as “increase”.
